Reference: paper PMC2148140

Target: human Erd2p (KDEL receptor) (human) (UniProt P24390)
Assay: radioligand binding

Sequence of UniProt P24390 (P24390 whole entry): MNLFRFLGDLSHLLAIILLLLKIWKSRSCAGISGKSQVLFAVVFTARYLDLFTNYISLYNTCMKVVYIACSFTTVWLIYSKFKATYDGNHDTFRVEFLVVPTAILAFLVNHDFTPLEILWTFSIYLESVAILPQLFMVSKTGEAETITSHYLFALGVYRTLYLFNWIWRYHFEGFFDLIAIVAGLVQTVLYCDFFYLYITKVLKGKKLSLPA

“cholera toxin A subunit (wild-type CTX-A), 125I-labelled (natural protein)” showed a binding at pH 6 as percent of the binding at pH 5 of 60%.
